# According to the DeepSol protein solubility set:
# Assay: soluble on expression in E. coli; label from the status in PepcDB or PDB records
row,Sequence,soluble on expression in E. coli
1,MGSDKIHHHHHHVNIQEQFLGSGSRGSYELHLVDRRPKDVLEQAEALPFWKQDYTQLDKGAFSGAVTSVSCQGIQIFREKMNRAVDQLASAPADTYVIGLPTMIEGEATWGMLPVKQDSLITLNKNTELLFRTSHCSEIAAAVISAQRLEEYAALVEWVDLREIMRKVKAVEQISSTIANRLMTSLVGGTRYISDVHESASVKHMWPNFEEDLMSTCLQALVQAKDSINHHYDHRIHRYIVNRVRDFTLLNSCCPLTISELCIELRVSRRTLNHAFLRVLGITPVAYMRNVRLHRVRAELQSAPDSVTSIANVATKWGFWHMSLFSRYYRELFGECPNKTLERTRLHKA,not soluble
2,GSLPEVLQAPVGSSILVQCHYRLQDVKAQKVWCRFLPEGCQPLVSSAVDRRAPAGRRTFLTDLGGGLLQVEMVTLQEEDAGEYGCMVDGARGPQILHRVSLNILPP,soluble
3,MRCPRCHHNNSRVIDSRQADDGRAIRRRRECENCSYRFTTFERIEAAPLLVIKKNGDREEFNRDKILRGLIRSAEKRPVAMEQMVQIVDNVENRVRSLGENEVSTTLIGEYVMEDLVNLDEIAYIRFASVYRQFKDMSVFLKELQDIVDKAKSSSPDSEN,not soluble
4,MSLPRGLELLIAQTILQGFDAQYGRFLEVTSGAQQRFEQADWHAVQQAMKNRIHLYDHHVGLVVEQLRCITNGQSTDAAFLLRVKEHYTRLLPDYPRFEIAESFFNSVYCRLFDHRSLTPERLFIFSSQPERRFRTIPRPLAKDFHPDHGWESLLMRVISDLPLRLRWQNKSRDIHYIIRHLTETLGTDNLAESHLQVANELFYRNKAAWLVGKLITPSGTLPFLLPIHQTDDGELFIDTCLTTTAEASIVFGFARSYFMVYAPLPAALVEWLREILPGKTTAELYMAIGCQKHAKTESYREYLVYLQGCNEQFIEAPGIRGMVMLVFTLPGFDRVFKVIKDRFAPQKEMSAAHVRACYQLVKEHDRVGRMADTQEFENFVLEKRHISPALMELLLQEAAEKITDLGEQIVIRHLYIERRMVPLNIWLEQVEGQQLRDAIEEYGNAIRQLAAANIFPGDMLFKNFGVTRHGRVVFYDYDEICYMTEVNFRDIPPPRYPEDELASEPWYSVSPGDVFPEEFRHWLCADPRIGPLFEEMHADLFRADYWRALQNRIREGHVEDVYAYRRRQRFSVRYGEMLFEGHHHHHH,not soluble
5,MAEKALATLKELAFLEDPSPVERDAAIQRFEYTFEAFWKALQAYLREKEGLEGASPKGVIRLAREVGLLRDEEARLALGMVDDRSLTVHTYNEPLARAIFRRLPDYARLMEQVLGRLRR,soluble
6,MKLFHTADWHLGKLVHGVYMTEDQKIVLDQFVQAVEEEKPDAVIIAGDLYDRAIPPTEAVDLLNDVLQKIVIDLQTPVIAVAGNHDSPDRIHFGSSLMKKQGLHIVGQFQFPYEPVVLNDEYGEVHFHLIPYADPSIVRHVLKNEDVRSHDDAMRIFMNELSETMDKEARHVFVGHAFVTSSGEAEENTSDAERPLSIGGAEYVNSHYFDKFHYTALGHLHQAHFVRNETIRYSGSPLAYSISEEKHKKGYYIVELNETGEVAIEKRLLSPRRKMRTVEAKIDELLQHPVSEDYVFVKLLDENPVLQPMEKIRSVYPNAMHVERAMQRRELTDTNEVTVSRHKTDDLSLLKAFYKEMKGLDLSEEKERLFIDVLQTVQEREGERG,not soluble
7,MTNPMQATRKIISITDQNVVHREDQVAREYPLTIYVNDREFATMVCTQADLEEMVIGFLGSEGLIRFYKQDVASLSIDESRGFAYVSLTKELPTEWQFYSKRMIGSCCGKSRQSFYFHNDAKTAKTSMSRTTMTPEQCFRLMEALQEQSVIFQQTGGVHNAALATPEQMLISRTDIGRHNALDKLYGYCLMNGVPVRDKVLLFSGRISSEVLLKAAKIGVGIMLSKSAPTELALTMAEELNITTAGFIRDGRMNIYTVPERILTPKKEVQLEHHHHHH,soluble
8,MTDAAEEVLLGKKGCTGVITLNRPKFLNALTLNMIRQIYPQLKKWEQDPETFLIIIKGAGGKAFCAGGDIRVISEAEKAKQKIAPVFFREEYMLNNAVGSCQKPYVALIHGITMGGGVGLSVHGQFRVATEKCLFAMPETAIGLFPDVGGGYFLPRLQGKLGYFLALTGFRLKGRDVYRAGIATHFVDSEKLAMLEEDLLALKSPSKENIASVLENYHTESKIDRDKSFILEEHMDKINSCFSANTVEEIIENLQQDGSSFALEQLKVINKMSPTSLKITLRQLMEGSSKTLQEVLTMEYRLSQACMRGHDFHEGVRAVLIDKDQSPKWKPADLKEVTEEDLNNHFKSLGSSDLKFAENLYFQ,soluble
9,MKRALGVSVYPDHSDINQDKAYLKKASECGFTRIFMSMLEVTDGKEAVQKKFKELISYAKNLGFETILDVVPSIFDELEISYDDLTFFSELGADGIRLDTGFDGNKEAMLTFNPFGVAIELNMSNDVAYLDNILTYEANRPFLYGCHNFYPQAGTALPYDFFEKCSIRFKKEGIRTAAFISSQVGEIGPWDVNDGLPTLEMHRQLPVTVQAKHLFATNLIDDVVIGNAYASNEELEALGQLNRYQTELTIVFEEATSEIEKEIVTKNQHFRRGDITQQMIRSTEVRKKYKNEVNPPHDNQAMLQPGDVVVGNDAFGKYKNELQVVLEPHQDSRKNRVGRIIEEELVLLEFIKPWTKFRFIEK,not soluble
10,MANTITADEIREHFSQAMSAMYQQEVPQYGTLLELVADVNLAVLENNPKLHEQLANADELARLNVERHGAIRVGTAEELSTLRRIFAIMGMYPVSYYDLSQAGVPVHSTAFRPIDEASLSRNPFRMFTSLLRLELIENAALRQRAAEILSQRDIFTSRCRQLLDEYDEQGGFSAAQAEEFVRETLETFRWHRQATVDEETYRSLHREHRLIADVVCFPGCHINHLTPRTLDIDRVQAMMPECGITPKILIEGPPRREVPILLRQTSFKALEEQVLFVDEKQGTHTARFGEIEQRGVALTPKGRRLYDELLHKAGTGKDNFTHQLHLREVFNAFPDSEFLLRQQGLAWFRYRLTPSGEAHRQAIHPGDDPQPLIERGWVIAQPITYEDFLPVSAAGIFQSNLGDETLARSHGNASRDAFEQALGCAVRDEFSLYQEAEERSKRRCGLLLEHHHHHH,not soluble
11,MGSDKIHHHHHHMGRMKNTFPFVITISRQLGAGGAYIGQQLAKKLSIFYADREIIGQAARKLSVMEEELEPRDEKSLSLWQFLIQSCACTPETSYIPPQITVPSDRELFKTESEIITRIAQEHSTVIIGRCGSYILREHPNHVSMFLHGDLSFRKSRIQKIYHVSENVAEKMIVQSDEERSQYHYKFTGKDWADARQYGLSVNTGRTGVDKTVDCILTYLELIKVRDCIP,not soluble
12,YRQQFDFSCGSAALASLLTFHYDDSVDEQSVFVDMFQHGDQEKIRREGFSMLDMKRYLERRGYGSDGFKINLDQLYSTGSPAITIINHNGYMHFVIIKGVDEDRVLVGDPAQGVKSMDRTEFERMWGNRIVFLIHNHVD,not soluble
13,MAHHHHHHMHFSQYPLRLTDLERQKLQLIVAALKVSEYTDDVDDFMRPYGKEGRMEAAMREFIDIVVGLAIASDAIPRSVKNSFLAGEVKVATVVPLLEDLFEIMRRHKRLNPFSHRGEFGKLMMMLQDVQKRSLQRALEIQSTLVIPVRTVEAALSSIYCETLVDDEAVRTDYLKRTGAEKQAGMQSLIERYGKGDEHKKEVIEHCLRSIDDVYSFIQSNTRPLRTLRRWLSRDFEPLPSDDVYSISIRHGRSGACFTHSHATHCQYVTESLLLWENVQKNILNLWEAAEDDMLVEGQGQYVVANTGQGFHRMCSAPKSYGVMSRLVRDTEQRMGGWVGIKVIHLGDRDVPNPLVFIDKYTVIPRLVKPVVQTLHALRYVLHEEDEEEEGQPQVAHEYDNYPGLRNLLRSKYHSYSELMMMILSDFFKHAFDGSGDDGGSCIDGRLTSAWNWCHQLHKKKYYDAFVLTGFAGFD,not soluble
14,NTLGMVMHADGGYLGSKPYCASGQYIKRMSDYCRGCAYKVTESTTDDACPFNALYWHFLMRHSDQLRRNQRMGMIYKNLDRMAEAKQQALWERGEHLLARLDAGEAL,not soluble
15,MSELFKKLMDQIEMPLEMKNSRVFSSADIVEVKVYPESRIWDFRFSFETILPIDFYQELRSRLVTSFETADIKAVFDIEVENAEFSNELLQAYYQEAFKQPTCNSASFKSSFSHLTVSYTDGKVLISAPQFVNNDHFRKNHLPNLEKQFEAFGF,not soluble
16,MTKIAESKIIVGLDIGTSKIAVVVGEVLPDGVINVLGASNCPSKGIDRGGVIDLDAAVNSIQRAIEQAESVSNCQIMGVTLAISGQHITALNESGVIPLSGTVVRKEDIDAAIHIAHSIKLPDG,not soluble
17,MAHHHHHHMPPSNVRKEEAELRQIAKQARLARKEVQQRERKQRQRERRAAAKNGEAATAAQQTAASSAMRTRGAIILPDEVQELRQRLMGDDAASAASAADSPARKTKKAAARKAARSPAKKSAGAAGASNHGAASSSTLVPTYHQEVHFKKKMFFVDVVLHHVPHQKIDISETNTNRLVVDTCGHTKKYRLVLPYPKGMLCDAAAATYEFENGILQCRLPIMDGAIPASLEAENAKMIEKMRQQRALRFRVTRDGDLTVRTRQALLTQAPAAQAALPEAKKAAAAQRGDDTDSDNEVVNAQAREAKGTEKMASPKSRKRTRDGDEEDSKETPQQTRSVSAKKAKGAAAAVNTLPTEAATASKPAAKKSKPDVFEAEHAKVMEAAKAAAAKVHLSMRERVKLAKAVQASREERLQTRSLRKERKEEQKQQSFHRILEEQKRQLLARASMQQPAPSPTAKVNASAKAVHFADE,soluble
18,MSLSKKTQINLKIERAKEEDLPKLVDLYLRAYKGLEEYAYTHPKDVKSYLKWLWNRDKEGIFLAKVDGKIVGFGAGDANWFSRREGKRVGAIHEIVVDPEYQGHGVGTALMNTILEYFKKKGLDTAELWVGDENYKAINFYKKFGFQESGRYNYWIRMIKGIITITTDPNSSSVDKLAAALEHHHHHH,soluble
19,MGSDKIHHHHHHLDTIPTTYVDAGSVFGKTGDAEKVLNGGWNYLMETFNSYANPGYGAMLRANDAMGSDVVLNSKYGFRTHNEFSAIYGKGGTNTLSWLLAYRVINDCNGVLDNIDAAEGTQADRNRIKGQALALRGFLYLHLASCYSFAIDKDPDAVCAPIYTQSTDETIAAEGKPASSVSEVYAQSINDLEEALELIPETYVRDAKHKIDNEVVLGILSRACLYARQWEKAKTYSDKLLAKDNYLMTESEYKAGFNSVDNKEWIWGHAQTNDQSNASYQFHYLDTTTKGSYYYSFNVDPYFRDLFEDGDYRKEMLFWATDPGADVESAAYVWMRNSKFRFRDIENQLGDIVLMRVAEIYLINAEAKAHLNDPDAINKLNDLKTARGAKTIHTNLSQQDLLETIWLERRKELWGEGFSLIDIIRNQQTVVRNAYPEGPIDYIYTDENGQTHTLKKKTQGHRFFNFPDKSAFCPNSKYYLYRITDSEELANKNLYKDHPKLSIYTK,not soluble
20,MGSDKIHHHHHHMSRKDVVAGIRNEEGISTVLDLLKQSFGERFQTGQSFREQHAHTTTYLPAQLPDGVVFVESAEDVKTVVRTCAQHKVPMVPFGVGSSLEGQVNAAHGGISIDFTRMDKVLEVNAEDLDCTVQPGVTREALNTYLRDTGLFFPIDPGANASIGGMASTRASGTNAVRYGTMKDNVMALTVVTANGEEIRTAHRARKSSAGYDLTRLFVGAEGTLGVITSITLKLQGIPEKIGGGVCAFADVKSACDAVIMTIQMGIPVARIELLDAMQVRACNAYSNLSLPERPTLFLEFHGTEQTVALQAQQFAAIAEEYGAEDLRFTSDPQERAQLWKARHNAYWAGRALAPELAGLSTDVCVPISKLAECVAETQADIAETGLLAPIVGHVGDGNFHLLILFDDKDAENVDKVEAFMARLNERALAMDGTCTGEHGVGQGKMSYLEAELGGALDVMRQVKRGLDPDNLFNPGKIFRL,not soluble
